Experimental data as given in the supplement of paper PMC7125110.
± gives the standard error. For part of these data: This sample holds only a part of the variants without activity.

B1: glmS ribozyme (parent)
chain: AUAAAAGCGCCAGAACUACAGAAAUGUAGUUGACGAGGAGGAGGUUUAUCGAAUUUUCGGCGGAUGCCUCCAAA

Tests used:
Conditions in all cases: with glucosamine-6-phosphate
[1] = variants of: B1; assay: kcat; higher = faster cleavage; RNA array
Summary of the method: (§1)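 Weighted Michaelis–Menten fits across concentrations supplied kcat and KM, based on kobs from one- or two-exponential decay fits to normalised per-tile medians. The data came from barcoded ribozyme variants transcribed in situ by E. coli RNA polymerase on sequenced MiSeq chips and tracked at 37 °C by a hybridised Cy3 probe. Glucosamine-6-phosphate (40 μM to 10 mM) in HEPES/KCl/Mg(OAc)2 buffer was flowed in.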

[2] = variants of: B1; assay: KM; higher = weaker cofactor use; RNA array
Summary of the method: as §1

[3] = variants of: B1; assay: self-cleavage kobs at 40 uM GlcN6P; higher = faster cleavage; RNA array
Summary of the method: as §1

[4] = variants of: B1; assay: self-cleavage kobs at 160 uM GlcN6P; higher = faster cleavage; RNA array
Summary of the method: as §1

[5] = variants of: B1; assay: self-cleavage kobs at 640 uM GlcN6P; higher = faster cleavage; RNA array
Summary of the method: as §1

[6] = variants of: B1; assay: self-cleavage kobs at 2500 uM GlcN6P; higher = faster cleavage; RNA array
Summary of the method: as §1

[7] = variants of: B1; assay: self-cleavage kobs at 10000 uM GlcN6P; higher = faster cleavage; RNA array
Summary of the method: as §1

## G26U U65G
[1]
  kcat: 0.00661 ± 0.0013 s⁻¹
[2]
  KM: 4.57 ± 1.2 mM
[3]
  self-cleavage kobs at 40 uM GlcN6P: 6.93e-05 ± 3.2e-05 s⁻¹
[4]
  self-cleavage kobs at 160 uM GlcN6P: 0.00028 ± 0.00012 s⁻¹
[5]
  self-cleavage kobs at 640 uM GlcN6P: 0.000733 ± 0.00016 s⁻¹
[6]
  self-cleavage kobs at 2500 uM GlcN6P: 0.00291 ± 0.0011 s⁻¹
[7]
  self-cleavage kobs at 10000 uM GlcN6P: 0.00449 ± 0.001 s⁻¹

## A12U U31C U47G
[1]
  kcat: 0.00222 ± 0.00076 s⁻¹
[2]
  KM: 5.11 ± 2.4 mM
[3]
  self-cleavage kobs at 40 uM GlcN6P: 4.15e-05 ± 1.7e-05 s⁻¹
[4]
  self-cleavage kobs at 160 uM GlcN6P: 8.69e-05 ± 1.9e-05 s⁻¹
[5]
  self-cleavage kobs at 640 uM GlcN6P: 0.000212 ± 4.5e-05 s⁻¹
[6]
  self-cleavage kobs at 2500 uM GlcN6P: 0.000645 ± 0.00015 s⁻¹
[7]
  self-cleavage kobs at 10000 uM GlcN6P: 0.00156 ± 0.00026 s⁻¹

## U47C C70G
[1]
  kcat: 0.000161 ± 3.3e-05 s⁻¹
[4]
  self-cleavage kobs at 160 uM GlcN6P: 7.93e-05 ± 2.2e-05 s⁻¹
[5]
  self-cleavage kobs at 640 uM GlcN6P: 0.000172 ± 3.5e-05 s⁻¹
[6]
  self-cleavage kobs at 2500 uM GlcN6P: 0.00012 ± 3e-05 s⁻¹
[7]
  self-cleavage kobs at 10000 uM GlcN6P: 0.000256 ± 0.0001 s⁻¹

## A42G U45A
[1]
  kcat: 0.0167 ± 0.0051 s⁻¹
[2]
  KM: 0.303 ± 0.13 mM
[3]
  self-cleavage kobs at 40 uM GlcN6P: 0.00181 ± 0.00058 s⁻¹
[4]
  self-cleavage kobs at 160 uM GlcN6P: 0.00634 ± 0.0022 s⁻¹

## G40C G41U
[1]
  kcat: 8.06e-05 ± 2.1e-05 s⁻¹
[6]
  self-cleavage kobs at 2500 uM GlcN6P: 8.04e-05 ± 1.1e-05 s⁻¹
[7]
  self-cleavage kobs at 10000 uM GlcN6P: 6.61e-05 ± 7.9e-06 s⁻¹

## A12C A64C
[1]
  kcat: 0.000233 ± 1.8e-05 s⁻¹
[2]
  KM: 4.85 ± 0.77 mM
[6]
  self-cleavage kobs at 2500 uM GlcN6P: 8.34e-05 ± 1.5e-05 s⁻¹
[7]
  self-cleavage kobs at 10000 uM GlcN6P: 0.000156 ± 2e-05 s⁻¹

## G29A C67A
[1]
  kcat: 0.00104 ± 0.00036 s⁻¹
[3]
  self-cleavage kobs at 40 uM GlcN6P: 2.96e-05 ± 8.8e-06 s⁻¹
[4]
  self-cleavage kobs at 160 uM GlcN6P: 0.000165 ± 3.2e-05 s⁻¹
[5]
  self-cleavage kobs at 640 uM GlcN6P: 0.000205 ± 3.9e-05 s⁻¹
[6]
  self-cleavage kobs at 2500 uM GlcN6P: 0.0005 ± 9.3e-05 s⁻¹
[7]
  self-cleavage kobs at 10000 uM GlcN6P: 0.00099 ± 0.00013 s⁻¹

## U55G U69A
[1]
  kcat: 0.000144 ± 3.5e-05 s⁻¹
[3]
  self-cleavage kobs at 40 uM GlcN6P: 4.44e-05 ± 1.1e-05 s⁻¹
[4]
  self-cleavage kobs at 160 uM GlcN6P: 7.03e-05 ± 9.5e-06 s⁻¹
[5]
  self-cleavage kobs at 640 uM GlcN6P: 0.00015 ± 1.9e-05 s⁻¹
[6]
  self-cleavage kobs at 2500 uM GlcN6P: 0.00021 ± 2.3e-05 s⁻¹
[7]
  self-cleavage kobs at 10000 uM GlcN6P: 9.83e-05 ± 1.7e-05 s⁻¹

## G66A C67G
[1]
  kcat: 0.00418 ± 0.0021 s⁻¹
[3]
  self-cleavage kobs at 40 uM GlcN6P: 0.000102 ± 1.4e-05 s⁻¹
[4]
  self-cleavage kobs at 160 uM GlcN6P: 0.000414 ± 5.4e-05 s⁻¹
[5]
  self-cleavage kobs at 640 uM GlcN6P: 0.000703 ± 0.0001 s⁻¹
[6]
  self-cleavage kobs at 2500 uM GlcN6P: 0.00281 ± 0.00066 s⁻¹
[7]
  self-cleavage kobs at 10000 uM GlcN6P: 0.00412 ± 0.00067 s⁻¹

## G13U C16U
[1]
  kcat: 0.00286 ± 0.00057 s⁻¹
[2]
  KM: 3.43 ± 1 mM
[3]
  self-cleavage kobs at 40 uM GlcN6P: 4.83e-05 ± 1.1e-05 s⁻¹
[4]
  self-cleavage kobs at 160 uM GlcN6P: 0.000115 ± 2.9e-05 s⁻¹
[5]
  self-cleavage kobs at 640 uM GlcN6P: 0.0004 ± 6.9e-05 s⁻¹
[6]
  self-cleavage kobs at 2500 uM GlcN6P: 0.00139 ± 0.00026 s⁻¹
[7]
  self-cleavage kobs at 10000 uM GlcN6P: 0.0021 ± 0.0003 s⁻¹

## G32A A42U C70A
[1]
  kcat: < 1e-05 s⁻¹
[3]
  self-cleavage kobs at 40 uM GlcN6P: < 1e-05 s⁻¹
[4]
  self-cleavage kobs at 160 uM GlcN6P: < 1e-05 s⁻¹
[5]
  self-cleavage kobs at 640 uM GlcN6P: < 1e-05 s⁻¹

## A42G U47G
[1]
  kcat: 0.00929 ± 0.0033 s⁻¹
[3]
  self-cleavage kobs at 40 uM GlcN6P: 0.000293 ± 6.2e-05 s⁻¹
[4]
  self-cleavage kobs at 160 uM GlcN6P: 0.00105 ± 0.00032 s⁻¹
[5]
  self-cleavage kobs at 640 uM GlcN6P: 0.0029 ± 0.00064 s⁻¹
[6]
  self-cleavage kobs at 2500 uM GlcN6P: 0.0046 ± 0.001 s⁻¹
[7]
  self-cleavage kobs at 10000 uM GlcN6P: 0.0143 ± 0.0028 s⁻¹

## U69G C70A
[1]
  kcat: 4.72e-05 ± 1.5e-05 s⁻¹
[4]
  self-cleavage kobs at 160 uM GlcN6P: 4.55e-05 ± 1.3e-05 s⁻¹
[5]
  self-cleavage kobs at 640 uM GlcN6P: 5.13e-05 ± 9.1e-06 s⁻¹
[6]
  self-cleavage kobs at 2500 uM GlcN6P: 7.85e-05 ± 1.2e-05 s⁻¹
